Results published in US20220175942A1.
pKd: −log10 of the molar value.

Columns and labels:
Assay in all cases: -; previously described evasin
CCL14_HUMAN = molecular target: CCL14_HUMAN
CCL16_HUMAN = molecular target: CCL16_HUMAN
CCL21_HUMAN = molecular target: CCL21_HUMAN
CCL23_HUMAN = molecular target: CCL23_HUMAN
CCL24_HUMAN = molecular target: CCL24_HUMAN
CCL26_HUMAN = molecular target: CCL26_HUMAN
CCL7_HUMAN = molecular target: CCL7_HUMAN
CXCL1_HUMAN = molecular target: CXCL1_HUMAN
CCL3L1_HUMAN = molecular target: CCL3L1_HUMAN

Work on EVASIN4 yielded a pKd (CCL14_HUMAN) of 9.85, a pKd (CCL16_HUMAN) of 9.59 and a pKd (CCL21_HUMAN) of 11.00. For the same substance, the pKd (CCL23_HUMAN) was 8.35, the pKd (CCL24_HUMAN) was 9.39 and the pKd (CCL26_HUMAN) was 9.06. It also gave a pKd (CCL7_HUMAN) of 9.15.
EVASIN3 was tested, and the pKd (CXCL1_HUMAN) was 9.07.
EVASIN1 showed a pKd (CCL3L1_HUMAN) of 10.30.
